{
  "source": "patent EP2450379B1",
  "target": "HA in BPL-inactivated virus preparation of A/New Caledonia/20/99 (H1N1) (influenza A virus A/New Caledonia/20/99 (H1N1))",
  "experiment": "ELISA, IgG 5 µg/ml",
  "data": [
    {"substance": "CR3014 (antibody)", "values": [
      {"measurement": "OD 492nm", "result": 0.09, "unit": "OD 492nm"}
    ]},
    {"substance": "CR6261 (antibody)", "values": [
      {"measurement": "OD 492nm", "result": 1.46, "unit": "OD 492nm"}
    ]}
  ]
}
